Source: patent US20110274702A1 (INSTITUTE FOR RESEARCH IN BIOMEDICINE, published 2011)

B1: FI28 variant 1 (antibody, V domains shown)
VH: EVQLVESGGGAVQPGESLKLSCAASGFTFSNYGMHWVRQAPGKGLEWVAVISYDGSNKYYADSVKGRFTISRDNSKDTLYLQMNSLRAEDTALFYCAKERPLRLLRYFDWLSGGANDYWGQGTLVTVSS
VL: DIVMTQSPDSLAVSLGERATINCKSSQSVLYSSNNKNYLAWYQQKPGQPPKLLIDWASTRESGVPDRFSGSGSGTDFTLTISNLQVEDVAVYYCQQYYRSPSFGQGTKLEIK
B2: FI6 variant 2 (antibody, V domains shown)
VH: QVQLVQSGGGVVQPGRSLRLSCVASGFTFSTYAMHWVRQAPGRGLEWVAVISYDGNYKYYADSVKGRFSISRDNSNNTLHLEMNTLRTEDTALYYCAKDSQLRSLLYFEWLSQGYFDPWGQGTLVTVTS
VL: DIQMTQSPDSLAVSLGARATINCKSSQSVTFNYKNYLAWYQQKPGQPPKVLIYWASARESGVPDRFSGSGSGTDFTLTISSLQAEDVAVYYCQQHYRTPPTFGQGTKVEIK
B3: FI6 variant 3 (antibody, V domains shown)
VH: QVQLVESGGGVVQPGRSLRLSCAASGFTFSTYAMHWVRQAPGKGLEWVAVISYDANYKYYADSVKGRFTISRDNSKNTLYLQMNSLRAEDTAVYYCAKDSQLRSLLYFEWLSQGYFDYWGQGTLVTVSS
VL: not shown

Tests used:
Assay in all cases: cell-based or functional assay
[1] = molecular target: H5N1 A/VN/1203/04 HA on pseudotyped virus (influenza A virus H5N1 A/VN/1203/04)
[2] = molecular target: H7N1 A/ck/FPV/Ro/34 HA on pseudotyped virus (influenza A virus H7N1 …, UniProt P03459 19-563)
HA A/VN/1194/04 (H5) = HA A/VN/1194/04 (H5) (influenza A virus H5 A/VN/1194/04)

Binder | Neutralization of HA-pseudotypes (IC90, µg/ml) [1] [µg/mL] | Neutralization H7 A/ck/FPV Rostock/34 pseudovirus, IC50 [2] [µg/mL] | Neutralization H5 A/VN/1194/04 pseudovirus, IC50 (HA A/VN/1194/04 (H5)) [µg/mL]
B1 | 0.02 | – | –
B2 | – | 0.02 | 0.0054
B3 | – | 0.0274 | 0.0035
